Laboratory results from the supplement of paper PMC9170038.

Tested on: K4 kissing-loop RNA reporter
Assay: apparent KD of K4 kissing-loop reporter; higher = weaker reporter binding
Conditions: Eterna round: R107
Method: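 RNA-MaP round R107: designed RNA switches with theophylline, tryptophan, arginine or FMN aptamers are transcribed on-chip within common flanks. They are titrated with a labelled K4 kissing-loop RNA reporter in RNA-MaP buffer (100 mM Tris pH 7.5, 80 mM KCl, 4 mM MgCl2), without ligand or with the indicated ligand. Median apparent KD per design.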

[1] = input ligand: theophylline 20 uM
[2] = input ligand: tryptophan 2.4 mM
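Note: bound reporter read as fluorescence of individual clusters on recovered sequencing chips by microscopy, with normalized cluster intensities fitted with a binding model.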

Row | Sequence | apparent KD of K4 kissing-loop reporter (input ligand: FMN 200 uM) [nM] | apparent KD of K4 kissing-loop reporter (input ligand: arginine 13.2 mM) [nM] | apparent KD of K4 kissing-loop reporter (input ligand: none) [nM] | apparent KD of K4 kissing-loop reporter [1] [nM] | apparent KD of K4 kissing-loop reporter [2] [nM]
1 | CAGAACUUGUAUACAGGGCAUGCCAGAGAUACCAGUCAAAUGGAAGGCCCUUGGCAGCUCAGGCGAGUGAUGUUCGCAGGCUGAC [Exclusion Theophylline A GF 19] | 140 | 122 | 116 | 131 | 133
2 | AUUAAGAUAUGAGUGAUGUUUAUGUCCGAAGGAGCGUGCGAAAGUACAGGUAGGUCGCGGAUGUGAGUGAUGUUUAUGUAAGCGU [KL-XArg-A15 #analogue] | 109 | 33.8 | 97.1 | 65 | 83.4
3 | AUUUUUUUGUCAGGAUAUUAGUAUGGUUUUGGUUUGUUAGUGAUGUUGAUAUUUUGUUUAUGUAUUUAAGAAGGGAUUUAGCGGU [gyhhgumullin] | 404 | 290 | 356 | 447 | 320
4 | UGGAUAUAGUGAUGUUAUAUAGAGAUAGAUACCAGUUAAGAGAAUAGCCCUUGGCAGCUGAAAGAAGUAUCAUUAGAGAAGAAUG [ExTheophyl.Ab] | 212 | 147 | 207 | 170 | 137
5 | UGACGUUUGGGAAGGAGCGGAAUGUAAUACGGAACGCGUGGAGAUGCAGUGAUGUUGCAGAUCCAGGUAGGUCGCCCAAGGGACG [Zainat] | 91.4 | 72 | 76.2 | 84.9 | 94.2
6 | UAUGUACACGGGUAGUUGUACAUCGAGGAAGGAGCGUGCGCAGGCACAGGUAGGUCGCCUCAGCGCACGAGUGAUGUUCGUGGGC [Xexegeus] | 276 | 170 | 257 | 216 | 247
7 | GCCGUACGCAUGGAUACCAGACUACCAUUGGAAACAAUGUGUCCGGUAGUGAUGUUACCUGUCCCUUGGCAGCCAUGCGUACGGC | 649 | 549 | 702 | 396 | 655
8 | CGCAGUGAUGUUGCUAUUAUUCUUGGUUAACGAGGACCGGUACGGCCGCCACUCGAUUUCUAUCUAAUCCAGUGUUUUUUUGAGU [JR_ExcTryptoA_Sub003] | 301 | 377 | 396 | 458 | 204
9 | AGCUCAGAGUGACUCGAUAAGAGUCACAAACGAGGACCGGUACGGCCGCCACUCGAAAUAAGGAGAGUGAUGUUCUCGCUGAGCA [FiskerMod 8 - Jieux - Same State Tryptophan A] | 454 | 81.5 | 124 | 35.1 | 345
10 | CGUGAGUGCCGUCAGUCAUCGGUCCAUGCACGAGGACCGGUACGGCCGCCACUCGAGCGUGGCAGUGAUGUUGCCAGCGCACUAA [KL-XTryp-A12] | 117 | 98.7 | 103 | 112 | 89.4
11 | UAUGAAGGUGGAGGAUAUUGAUUGAAUCUUGGUCAGGAGUGAUGUUCCGGGAAGCCUUGGAUUCAUCGAGAAGGCCAAGGAUAGU [Extra 3] | 123 | 344 | 344 | 330 | 327
12 | UAGAGUCACAAGACAGUGAUGUUGUCUACUGAGGAUAUCAUGAAUAUGAGAAGGCAGUGUUGGAGGUCUCUAACAACAGACUCUG [FMN A SS t3] | 237 | 227 | 389 | 370 | 280
13 | CUUAUUUCUCGCUAUGAUGUUAGUUGAGCCAAGGAUAUUAAUGAAUUAAGAAGGUGGGUUUUUAAGUGAUGUUUUGAGACUGGCA [theeternabot_exclusion_KL_FMN_A_27] | 793 | 718 | 863 | 727 | 568
14 | GUACGCUCUCGAGUGAUGUUCGAUAAUCGCGAGGAUAUCGCUUUUGCGAGAAGGCGCGGAAUGAGGAAACUCGUUCUGAGUGUAC [FMN A 24] | 603 | 390 | 1060 | 673 | 841
15 | AAAUACAUUUUAUUAUAUAACUUUUCAGAAGGAGCGUGGAAGUUCACAGGUAGGUCGCUGAAUAUUGGACUAGUGAUGUUAGUUA [JR_Nu_SSArginiA_Sub021] | 222 | 217 | 253 | 225 | 179
16 | GUUCUCGAAACUCAGUGAUGUUGAGUUGCAGAGGAUAUCCGCACAUGGAGAAGGCUGCAGUAAUUUAAAGACUCAGCGGCGCUCC [Riare] | 112 | 117 | 115 | 120 | 115
17 | AUGUCGUUAUAGUGAGUGAUGUUCACUGUGCGAGGACCGGUACGGCCGCCACUCGAGAGUGGUGGACACUGAGUCACUCUGACAC [Tryp A Ex t2] | 124 | 123 | 130 | 111 | 283
18 | UUUGGUUUCUCGGCCGCCACUCGUUGUCUAUCGGCUUCAGGGAUAUAGUGAUGUUAUGUAUAGAAGAGGACCGGGAGAAGGUUUU [ExTryptoB.Dw] | 467 | 602 | 603 | 864 | 398
19 | GUAUCGCUAGGAGGAUAUUCCAUUUUACAUAGAAAUGGCUAUGCGGAGUGAUGUUCCGAUUUACGGGAAGAAGGCCUAGUGAUAC [FMN B 21] | 137 | 119 | 131 | 115 | 121
20 | AAACAUCACUGGGAGUGAUGUUCUCAGUGACGAGGACCGGUACGGCCGCCACUCGCGAGAGAUAUAAAUAAGUAAUGACAUCAUU [Excl Tryptophan A V1] | 359 | 334 | 360 | 357 | 423
21 | UAAUAAAUUCCAGCGAUGUCACUCUUCGAAGGAGCGGACGAAAGUCCAGGUAGGUCGCGAAGAGUGAUGUUCUUCGCGGCGCUGG [Omei KL Arginine A Exc A v3] | 167 | 115 | 183 | 204 | 174
22 | AGUAGAGCAUCAGAUACCAGACUGAACUGAUGGUAAGGAGUGAUGUUCCUUAAUCAGCUAGUCCCUUGGCAGCUGAUAAUAGUCA [Theo B SS t3] | 251 | 253 | 268 | 183 | 222

Row | Sequence | apparent KD of K4 kissing-loop reporter (input ligand: FMN 200 uM) [nM] | apparent KD of K4 kissing-loop reporter (input ligand: arginine 13.2 mM) [nM] | apparent KD of K4 kissing-loop reporter (input ligand: none) [nM] | apparent KD of K4 kissing-loop reporter [1] [nM] | apparent KD of K4 kissing-loop reporter [2] [nM]
23 | UGAUAGGACAGAAGGAGCGGUAGUGAUGUUACCAAAAGGCUAAGGUGUCAAAAGACACCCUACCAGGUAGGUCGCUGUCCUAUCU | 131 | 131 | 137 | 121 | 103
24 | UGUACCGAGUCAGGAUAUCAUAAUAAUCGAGUGAUGUUCGAAUAACGACUGACAAAGUCGGUCGAUUGAGAAGGGACUUGGUACU [FmnBS 7 #SwitchBubble #StaticStem] | 150 | 342 | 444 | 362 | 378
25 | CAAAUAUGCGGUAGGUUCAAGCGCUGGGAAGGAGCGCAGAUGACUGCAGGUAGGUCGCCCAGUGAUGUUGGGCUUUCCACCUAUG [Esisusa] | 132 | 109 | 107 | 136 | 100
26 | AUAUAAGUCGGAGGAUAUCCAGUGAUGUUAUGUUGUGAUGUUUAGUGAUGUUAGGCAUCAGUGAAGGGAGAAGGCCGUAAGUGAU [APPLE] | 68.6 | 53.3 | 91.1 | 89.2 | 78.9
27 | GCGCGUCAUGUCAGCGGUGACUUUGUCGAUACCAGCGCCGCAAGGCGCCCUUGGCAGCGACGCGCUGGAGUGAUGUUCCAGCGUG [#2 Exclusion - Theophylline A Attempt #12 (HarryS)] | 135 | 126 | 134 | 154 | 126
28 | UUAAAAUAUAUAAAUAAUAAGGGAAUUGAUACCAGACAGAAUUCUGUCCCUUGGCAGCAGUGAUGUUGUUGCAAUUUAAAUAAUU [AK1 Exc Theophylline A] | 104 | 148 | 112 | 136 | 85.7
29 | UCUUUAGUAUAUGAUACCAGCAGUGAGAGACAGGAAGUAUAGUGAUGUUAUAUGAGAGAAUGCCCUUGGCAGCGUGUGCGGUGGG [SSTheophylB.T] | 132 | 103 | 93.4 | 119 | 101
30 | GGUUCUGGUUUGGAGUGAUGUUCUAAGUGGCAGGAUAUGGAGAGAUCCAGAAGGGCCGUUUGUAUCUUUUUUGUGUGGUUUUUUU [Last Minute #2] | 132 | 195 | 231 | 206 | 160
31 | CGUGGUGCUCGCCAGCUGUGCGAGCGGUGGGAGGAUAUGUCGCGAGACAGAAGGCCCAGUGAUGUUGGGCAGGCUCGUAGAUCAA [Orbemaed] | 152 | 118 | 121 | 133 | 116
32 | AUUCGUCUCUGAGGAUAUCAGAGGAGAGUGAUGUUCUCCCAUAGCCCAGUGAUGUUGGAUGCUAUCUGAGAAGGCAGUGGGCGAA [Same State FMN B GF 14] | 142 | 203 | 213 | 226 | 186
33 | GCAGACACGCAGUGAUGUUGCGAAACGGAAGGAGCGCGUGAAAACGCAGGUAGGUCGCCGACACAUUAAUUAUAAUUUUGUUUGC [Arginine A K4 15] | 279 | 241 | 270 | 274 | 200
34 | CCUAUCUCGUACGAUACCAGACUAUGAUCUUUGAUCAAUGCCAUCACCGAGUGAUGUUCGGUCCCUUGGCAGCGUAUGAGAUGGG [#12 K4 Theophylline B Exclusion] | 179 | 143 | 170 | 202 | 155
35 | GGGUGGCAGGCGGCCGCCACUCUGAGCAGCCAGUGAGUGAUGUUCGUGGCGGAAGAAUGUUCGUAGAGGACCGGGUUUGUUGUUC [Same State Tryptophan B GF 22] | 472 | 245 | 297 | 432 | 337
36 | GCCGUACGCAUGGAUACCAGUCUACAUCGCAGUGAUGUUGCGUAGUUCAGAUUAACUGCCGACCCUUGGCAGCCAUGCGUACGGC | 134 | 111 | 127 | 118 | 120
37 | CGCAGUGAUGUUGCGAAUAUAAUAACGGAAGGAGCGCGUGAAAACGCAGGUAGGUCGCCGUUUGGUAUGAUGGAAACAUCGUACC [Arginine A K4 11] | 135 | 138 | 132 | 106 | 123
38 | AAGGGCUAGGCGGCCGCCACUGGUCGUGUACACAUACAAACCAGUGAUGUUGGUAUUGUAUGCGACAGGACCGGGCCUAGCCGAA [Exclusion - Tryptophan B (Freestyle 28)] | 280 | 229 | 323 | 258 | 481
39 | UAGUCCUAGUGAUCCUUAUCAAGUGGUGGGCGAGGACCGGUACGGCCGCCACUCGACUAUGCAGUGAUGUUGCAAUCCGGACAAU [Exclusion - Tryptophan A (Freestyle 13)] | 191 | 211 | 194 | 243 | 179
40 | GCCGUACGCAUGGAUACCAGUCUACAUCGCAGUGAUGUUGCGUAGUUCAGAUAGAUUGCCGACCCUUGGCAGCCAUGCGUACGGC | 133 | 109 | 111 | 109 | 114
41 | CACAAUUAAUUACAGUGAUGUUGUAAUCUGCGAGGACCGGUACGGCCGCCACUCGGGCUUGUAGGGCGCCCACAUUCUUAUACUA [theeternabot_sameState_KL_Trp_A_29] | 447 | 348 | 426 | 428 | 360
42 | AUUAAUUUCAGAGGAUAUGCUUUAUUAUUAUUUUUAAAUAAUAUAAGCAGUGAUGUUGCUUUUUAUGCAGAAGGCUGAUUUAUAA [JR_SSFMNB_Sub016] | 137 | 397 | 383 | 384 | 360
43 | GGGAGUAGUGCGGCCGCCACUGAGAAAGAAGAAGAAUAUAGUGAUGUUAUAUAGGAAUUAAAGAACAGGACCGGGCAUUAGAUUU [SSTRyptB.O] | 210 | 208 | 219 | 163 | 143
44 | UGUCGAGUGAUGUUCGAUGUGGUGCAUUCAGAGGAUAUAGGGUGGGCUAGAAGGCUGAAAAGUGCUUCGAGUGAUGUUCGAAGAU [Exclusion FMN A GF8] | 70.6 | 117 | 144 | 132 | 110
